The values that follow come from patent CN115850497A (SHAANXI MAI YUAN BIOTECHNOLOGY CO LTD, dated 2023).

Assay [1] concerns the target YKL-40-strep (YKL-40 protein expressed from pGEX 4t-1 in E. coli BL21(DE3)) (human) (UniProt P36222). The assay is described as follows: ELISA, uncloned hybridoma supernatant (plate 10, well F1) on coated YKL-40, 1st screen.
For assay [2] the target is unchanged. The assay can be described thus: ELISA, supernatant of subclone 10F1-G8-D9 on coated YKL-40, 3rd screen. For orientation: In an ELISA, binding on a coated surface is turned into a signal by an enzyme label.
Assay [3] has as its target T1, YKL-40-6his expressed from pcDNA3.1 in transfected 293T cells (human, UniProt P36222 22-383).
T1 construct: whole, on cells; also called YKL-40(YKL-40-6his); not shown: 6his tag
The assay can be described thus: CBA, immunofluorescence of hybridoma supernatant on transfected fixed 293T cells.

Assay [4] deals with T2, Q YKL-40-293-310-6his (YKL-40 construct lacking residues 293-310) (human, UniProt P36222 22-383).
T2 construct: also called 缺失氨基酸区间293-310组; not shown: 6his tag
T2 sequence (P36222 other isoform, or with tags, fused parts or gaps limits assumed): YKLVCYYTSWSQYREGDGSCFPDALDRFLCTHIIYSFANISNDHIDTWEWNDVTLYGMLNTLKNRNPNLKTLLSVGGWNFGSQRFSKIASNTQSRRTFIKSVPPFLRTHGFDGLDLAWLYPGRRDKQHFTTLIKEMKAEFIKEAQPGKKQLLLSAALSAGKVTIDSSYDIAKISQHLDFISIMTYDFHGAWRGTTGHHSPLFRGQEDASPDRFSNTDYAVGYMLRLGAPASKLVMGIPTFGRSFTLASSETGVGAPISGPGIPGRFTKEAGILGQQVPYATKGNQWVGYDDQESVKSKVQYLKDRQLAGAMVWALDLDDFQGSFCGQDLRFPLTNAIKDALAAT
The assay can be described thus: immunofluorescence on transfected, acetone-fixed 293T cells.

Assay [5] deals with T1, YKL-40-6his expressed from pcDNA3.1 in …. The assay is described as follows: immunofluorescence of 293T supernatant on transfected fixed 293T cells.

T1 sequence (P36222 22-383): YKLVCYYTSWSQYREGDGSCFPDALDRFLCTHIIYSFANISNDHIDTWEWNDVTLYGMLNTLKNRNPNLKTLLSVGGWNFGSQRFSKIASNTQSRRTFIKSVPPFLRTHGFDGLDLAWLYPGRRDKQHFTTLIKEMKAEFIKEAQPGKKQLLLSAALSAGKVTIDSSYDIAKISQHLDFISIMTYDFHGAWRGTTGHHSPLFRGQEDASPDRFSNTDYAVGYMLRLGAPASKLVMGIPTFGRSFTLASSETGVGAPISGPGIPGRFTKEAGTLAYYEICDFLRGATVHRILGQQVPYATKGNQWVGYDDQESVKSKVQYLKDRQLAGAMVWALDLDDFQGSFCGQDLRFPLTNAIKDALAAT

B1: 单克隆抗体10F1 (hybridoma-derived, clone 10F1-G8-D9) (antibody, V domains shown)
VH: EVQLQESGPSLVKPSQTLSLSCSVTGDSITSGYWNWIRKFPGNKLEYMGFISYSGNTYYNPSLKSRISITRDTSKNQYFLQLNSVTTEDTATYYCVRKGDYDGAWFAYWGQGTLVTVSA
VL: DIQMTQSPASLSASVGETVTITCRASGNIHNYLAWYQQKQGKSPQLLVYNAKTLADGVPSRFSGSGSGTQYSLKINSLQPEDFGSYYCQHFWSTPLTFGAGTKLELK
notes: Mouse hybridoma antibody; Tested as hybridoma culture supernatant; also called YKL-40单克隆抗体
As for B1, the OD450 was found to be 0.905 in assay [1] and 1.14 in assay [2]. Moreover, in assay [3], the binding result is given as “binds”.

B2: 重组单克隆抗体10F1 (expressed from 10F1m2a + 10F1mk in 293T cells) (antibody, V domains shown)
VH: EVQLQESGPSLVKPSQTLSLSCSVTGDSITSGYWNWIRKFPGNKLEYMGFISYSGNTYYNPSLKSRISITRDTSKNQYFLQLNSVTTEDTATYYCVRKGDYDGAWFAYWGQGTLVTVSA
VL: DIQMTQSPASLSASVGETVTITCRASGNIHNYLAWYQQKQGKSPQLLVYNAKTLADGVPSRFSGSGSGTQYSLKINSLQPEDFGSYYCQHFWSTPLTFGAGTKLELK
notes: also called 重组10F1单克隆抗体
Take B2: the binding result in assay [4] is “no binding”; in assay [5], “binds”.
